Legend:
hnRNPF (recombinant) [1] = target: T1, hnRNPF (recombinant) (human, UniProt P52597 1-415); assay: pull-down
T1 sequence: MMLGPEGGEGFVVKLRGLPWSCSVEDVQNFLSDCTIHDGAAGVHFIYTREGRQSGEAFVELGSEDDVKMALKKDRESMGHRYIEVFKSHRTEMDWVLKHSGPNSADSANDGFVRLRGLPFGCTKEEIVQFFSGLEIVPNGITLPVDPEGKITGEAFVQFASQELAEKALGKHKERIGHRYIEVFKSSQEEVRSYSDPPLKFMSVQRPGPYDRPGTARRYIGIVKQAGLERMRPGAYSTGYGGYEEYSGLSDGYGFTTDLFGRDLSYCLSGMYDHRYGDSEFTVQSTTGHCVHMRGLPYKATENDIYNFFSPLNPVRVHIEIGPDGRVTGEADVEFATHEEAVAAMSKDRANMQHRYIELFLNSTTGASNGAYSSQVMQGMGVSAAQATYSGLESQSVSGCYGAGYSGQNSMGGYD

hnRNPF (recombinant) [2] = target: T1, hnRNPF (recombinant); assay: EMSA
hnRNPF (recombinant) [3] = target: T1, hnRNPF (recombinant); assay: EMSA; remark: listed apart in the source

GCUUUGGUGGUGGAAUGGUGCUAUGUGG (structured_RNA) [Biotin-I-8-wt]
binding result (hnRNPF (recombinant) [1]): binds

GCUUUGGUGGUGGAAUGGUGCUAUGUGG (structured_RNA) [I-8]
binding result (hnRNPF (recombinant) [2]): binds

GCUUUGAUGAUGAAAUGAUGCUAUGUGG (ssRNA) [I-8 G4m]
binding result (hnRNPF (recombinant) [3]): no binding

Source: PMC5769772
